In the nanobody polyreactivity screen of Harvey et al. (2022):

Experiment: yeast display, Sf9 membrane polyspecificity reagent, FACS + sequencing; frameworks hold sequencing errors
Procedure, shortened: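 In a synthetic yeast display library (Saccharomyces cerevisiae BJ5465), nanobody expression was induced with galactose for 36–48 hours. FACS gates were set low and high (top ~1%) using anti-HA fluorescence for expression and streptavidin fluorescence for binding of the Sf9 membrane reagent. Each polyreactivity label is drawn from the gate of origin.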

Sequence	polyreactivity (PSR sort gate)
QVQLVESGGGLVQAGGSLRLSCAASGSIIPYYVMGWYRQAPGKERELVAAITSGGSTYYADSVKGRFTISRDNAKNTVYLQMNSLKPEDTAVYYCAVRWYPLYAPYWRDYWGQGTQVTVSS	high polyreactivity
QVQLVESGGGLVQAGGSLRLSCAASGFIFWVYALGWYRQAPGKERELVAAITSGGGSTYYADSVKGRFTISRDNAKNSVYLQMNSLKPEDTAVYYCNSVSWEGYDFDYWGQGTQVTVSS	high polyreactivity
QVQLVESGGGLVQAGGSLRLSCAASGSIIGYYAMGWYRQAPGKERELVAAITASGGSTYYADSVKGRFTISRDNAKNTVYLQMNSLKPEDTAVYHCAADRIGGPGSYLYDYWGQGTQVTVSS	low polyreactivity
QVQLVESGGGLVQAGGSLRLSCAASGRIFDVYAMGWYRQAPGKERELVAAITWSGTSTYYADSVKGRFTISRDNAKNTVYLQMNSLKPEDTAVYYCAAEVAYTDTEYFWYYYWGQGTQVTVSS	high polyreactivity
QVQLVESGGGLVQAGGSLRLSCAASGGTFYVYDMGWYRQTPGKEREFVADINFSTGITYYADSVKGRFTISRDNAKNTVYLQMNSLKPEDTAVYYCNADTAFYVYWYWIYDYWGQGTQVTVSS	high polyreactivity
QVHLVESGGGIVQAGGSLRLSCAASGSIFKKNAMGWSRQAPGKERELVAAITLSSSDTYYADSVKGRFTISRDNAKNTVYLQMNSLKPEDTAVYYCAAKRTRDMDYWGQGTQVTVSS	high polyreactivity
QVQLVESGGGLVQAGGSLRLSCAASGRTFVKNAMGWYRQAPGKERELVAAISRTGSTNYADSVKGRFTISRDNAKNTVYLQMNSLKPEDTAVYYCAAVRYDYWGQGTQVTVSS	low polyreactivity
QVQLVESGGGLVQAGGSLRLSCAASGSTLWGYAMGWYRPAPGKERELVAAITSSGGITYYADSVKGRFTISRDNAKNTVYLQMNSLKPEDTAVYYCAVDYYVVGWTYLYYYRGQGTQVTVSS	low polyreactivity
QVQLVESGGCLVQSGGSLRLSCAASGIIISSYAMGWYRQAPGKERELVADIRSGGSTNYADSVKGRFTISRDNAKNTVYLQMNSLKPEDTAVSDCNADTFQWWDSAAVYVIVKYGYWGHGTQVTVSS	low polyreactivity
QVHLVESGGGLVQAGGSLRLSCAASGSTKGNNAMGWYRQATGKERELVAAISTRGGSTYYADSVKGRFTISRDNAKNTVYLQMNSLKPEDTAVYYCAADFGQYHGAVRKMDYWGQGTQVTVSS	low polyreactivity
QVQLVESGGGLVQAGGSLRLSCAASGRTFRRYAMGWYRQAPGKERELVAAISRGANTNYADSVKGRFTISRDNAKNTVYLQMNSLKPEDTAVYYCNAKQAGYYFAFGYWGQGTQVTVSS	high polyreactivity
QVHLVESGGGLLQAGGSLRLSCAASGSIFAYNAMGWYREAPRKERELVASITNGGSTYYADSVKGRFTISRYNAKNSVYLQMKSLKPEDTAVYYCNTDFDGYSVGYDGYWGQGTQVTVSA	low polyreactivity
QVQLVESGGGLVQAGGSLRLSCAATGRIFDYNVMGWSRQAPGKERELVADINGCGGRTNYADSVKGRFTISRDNAKNSVYLQMNSLKPEDTAVYDCAAEWYSYGARSSYGGSRNDYWGQGSQVTVSS	low polyreactivity
QVQLVESGGGLVQAGGSLRLSRAASGRTFYGYAMGWYRQAPGKESELVARIRSGGSTNYADSVKGRFTISRDNAKNTVYLLMNSLIPEDTAVFYCAARPGAAGYKYYYWGQGTQVTVSS	high polyreactivity
QLQLVESGGGLVQAGGSLRLSCAASGRTFQLYAMGWYRQAPGKERELVAAISYSGGSTYYADSVKGRFTISRDNAKNSVYLQTNSLKPEDTAVYYCAARPRSTRPSYYYRSAGYYWGQGTQVTLSS	high polyreactivity
QVQLVESGGGLVQAGGSLRLSCAASGRTFQTNAMGWYRQAPGKERELVAAISWSGGRTYYADSVKGRFTISRDNAKNTVYLQMNSLKPEDTAVYYCAARQWYRYKVRFDYWGQGTLVTVSS	high polyreactivity
QVQLVESGGGLVQAGGSLRLSCAASGLISYRNAMGWYRQAPGKERELVAAISSDGSTYYADSVKGRFTISRDNAKNTVYLQMNSLKPVDTAVYYCAADYREFDAYGAARTLDFDYWGQGTQVTVSS	low polyreactivity
QVQLVESGGGLVQAGGSLRLSCAASGSIFFTYAMGWYRQAPGKERELVAAISGVVSTYYADSVKGRFTISRDNAKNTVYLQMNSLKPEDTAVYYCAADYSWTGFGWEYDYWGQGTQVNVSS	low polyreactivity
QVQLVESGGGLVQAGGSLRLSCAASGRIFLVYVMGWYRQAPGKERELVADITFSGGSTYYADSVKGRFTISRDNAKNTVYLQMNSLKPEDTAVYYCAARKPRSGGPFDYWGQGTQVTVSS	high polyreactivity
QVQLVESGGGLVQAGGSLRLSCAASGFTFDYNAMGWYRQAPGKDRELVAAISESGGSTYYADSVKGRFTISRDNAKNTVYLQMNSLKPEDTAVYYCPTDFPVYYDYGYWGQGTQVTVSS	high polyreactivity
QVQLVESGGGLVQAGGSLRLSCAASGSIFWTYAMGWYRQAPGKEREFVAAITFNYGSTYYADSVKGRFTISRDTAKNTVYLQMNSVKPEDTAVYYCNADTWYYYNFWSYIEYDYWGQGTQVTVSS	high polyreactivity
QVQLVESGGGLVQAGGSLRLSCAASGYIFAWNAMGWYRQAPGKERQLVAAIRSSSGRTYYADSVKGRFTISRDNAKNTVYLLMNSLKPEDTAVYYCAASYAGGAVYYKYYSWGQGTQVTVSS	high polyreactivity

Sequence	polyreactivity (PSR sort gate)
QVQLVESGGGLVQAGGSLSLSCAASGNTFYGYAMGWYRQAPGKERELVASITLSGDSTYYADSVKGRFTISRDNAKNTVYLQMNSLKPEDTAVFDCAGVYTYPLGYYHYTYDYWGQGTQVTVSS	low polyreactivity
QVQLVESGGGLVQAGGSLRLSCAASGSIFFYYAMGWYSQAPGTERELVAAIRNGGSTKYADSVKGRFTISRDNAKNTVYLQMNSLKPEDTAVYYCAAGYPVTRRTIRFDYWGQGTQVTVSS	high polyreactivity
QVQLVESGGGLVQAGGSLRLSCAASGSIFPGYARGWYRQAPGKERELVATITWSGGSTYYADSVKGRFTISRDNAKNTVYLQMNILIPEDTAVYYCNADSNWYYQWNYYGLYDYWGQGNQVTVSS	low polyreactivity
QVQLVESGVGLVQAVGSLRLSCAASGSILITNAMGWYRQAPGKERELVAAISSGGSTYYADSVKGRFTISRDNAKNTVYLQMNSLKPEDTAVYYFAADQLKVGREYVEYDYWGQGTQVTVSS	low polyreactivity
QVQLVESGGGLVQAGGSLRVSCAASGRIFTQYATGWYRQAPAKEREMVAAINASDGSTYADSVKGRFTISRDNAKNSVYVQMNSLNPEDSAVYYCNVTGGPYDFTRWSDFDHWGQGTQVTVSS	low polyreactivity
QFQLVESGGGLVQAGGSLRLSCAASGRIYGLYAKGWYRQAPGKERELVAAISSTGGRTFYADSVKGRFTISRDNAKNTVYFQMNSLKPDDTAVYYCAAYRYSRYRQRYNYCGQGTQVTVSS	high polyreactivity
QVQLVESGGGLVQAGGSLRLSCAASGFTFRFYAMGWYRQAPGKERELVATISSRGGRTYYADSVKGRFTISRDNAKNTVYLQMNSLKPEDTAVYYCNKDLYRYPGYDYWGQGTQVTVSS	high polyreactivity
QVQLVESRGGLVQAGGSLRLSCAASGFTFYLNALGWYRPAPGKERELVAAISYSDGSTYYADSVKGRFTISRDNAKNTVYLQMNSLKPEDTAVYYCAADTTDPGGAYQLMDYCGQGTQVTVSS	high polyreactivity
QVQLVDSGGALVQAGGSLRLSCAASGRTFRPNAMGWYRQAPGKERELVAVISWRGGRTYYADYVKGRFTISRDIAKNTVYLQMNSLKPEDTAVYYCGARVYLSGYGYNYWGQGTHVTVSS	high polyreactivity
QVQLVESGGGLVQAGGSLRLSSADSGRIFRGYAMRLYRQAAGKVREFVAAISWGGGSKYYADSEKGRFTISRDNPKNTVYLQMNSLTPEDSAVYYCAAGSPYAYNYWGQGPQVTVSS	high polyreactivity
QVQLVESGGGLVQAGGSLRLSSAASGRTFPHYAMGWYRQAPGKERELVAAISSSGGSTYYADSVKGRFTISRDNAKNTVYLQMNSLKPEETAVYSCAARYVDDGWKYAYWGQGTQVTVSS	low polyreactivity
QVQLVESGGGLVQAGGSLRLSCAASGITFFLYTMGWYRQAPGKERELVAAITWRGTSTYYADSVKGRFTISRDNAKNTVYLQMNSLKPEDTGVYYCAARSRRGGYPRYYYWGQGTQVTVSS	high polyreactivity
QVQLVESGGGLVQAGGSLRLSCAASGFIFRYYAMGWYRQAPGKERELVAAINRGGGTNYADSVKGRFTISRDNAKNTVYLQMNSLKPEDTAVYYCAAVIRTVRERYGYWGQGTQVTVSS	high polyreactivity
QVQLVESGGGLVQAGGSLRLSCAASGFIFVYYVMGWYRQAPGKERELVAAITQSGGSTYYADSVKGRFTISRDNAKNTVYLQMNSLKPEDTAVYYCAAYRRTTGGGYDYWGQGTQVTVSS	high polyreactivity
QVQLVESGGGLVQAGGSLRLSCAASGFTFRANGMGWYRQAPGKERELVATITSGGTTNYADSVKGRFTISRDNAKITVYLQMNSLKPEDTAVYYCAKAFRHSTFFAPYDYWRQGTQVTVSS	low polyreactivity
QVQLVESGGGLVQAGGSLRLSCAASGYTFYFYAMGWYRQAPGKERELVASITWRGGSTYYADSVKGRFTISRDNAKNTVYLQMNSLKPEDTAVYYCAKQVYYIYDYWGQGTQVTVSS	low polyreactivity
QVQLEESGGGLVQAGGSLRLSCAASGLTFPWYAMGWYRPATGKEREFVAAITGGGSTYYADSVKGRFTISRDNAKNTVYLQMNSLKPEDTAVYYCNTDVPYGLDVSDTIDYYYWGQGTLVTVSS	low polyreactivity
QVQLVESGGGLVQAGGSLRLSCAASGSTFFYYAMGWYRQAPGKERELVAAISGNGGSTYYADSVKGRFTISRDNAKNTVYLQMNSLKPEDPAVYYCAAVSSWDEYYYWGQGTQVTVSS	high polyreactivity
QVQLVESGGGLVQAGGSLRLSCAASGSTCFDYAMGWYRQAPGKERELVAAISRSGDTNYADSVKGRFTISRDNAKNTVYLQMNILKPEDTAVYYCAKDWAYRRHWVGFYYWGQGTQVTVSS	low polyreactivity
QVQLVESGGGLVQAGGSLRLSCAASGFSFRVYTMGWYRQAPGKERELVAAISYRGGRTYYADTVKGRFTISRDNAKNNVYLQMNSLKPEDSALYYCAATAIYPSAWRMDYWGQGTLVTVSS	high polyreactivity
QVQLVESGGGLVQAGGSLRLSCAASGSTFSVYTMGWYRQAPGKERELVAAISRSGGRTYYADSVKGRFTISRDNAKNTVYLQMNSVKPDDTAVYYCATGYYGTYDYWGQGTQVTVSS	high polyreactivity
